B1: I23RB87 (antibody, mouse IgG2a, kappa, V domains shown)
VH: EFQLQQSGPELVKPGTSVKMSCKASGYTFTNYVMHWVKQKPGQGLEWIGYINPYDASPKYNEKFKGKAILTSDKSSSTAYMELSSLTSEDSAVYYCTRDAKLDYFDYWGQGTTLTVSS
VL: DIVMTQTTSSLSASLGDRVTISCRASQDISNYLNWYQQKPDGTVKLLIYYTSRLHSGVPSRFSGSGSGTDFSLTISNLEQEDIATYFCQQGITLPWTFGAGTKLELKR
notes: immunization; mouse IgG2a/kappa
B2: I23RB78 (antibody, mouse IgG2a, kappa, V domains shown)
VH: EFQLQQSGGGLVKPGGSLKLSCAASGFTFSNYTMSWVRQTPEKRLKWVACISSGGGNTYYPDSVKGRFTISRDNARNTLYLQMSSLRSEDTAMYYCARRNYRRAMDYWGQGTSVTVSS
VL: DIVMTQSPASLAVSLGQRATISCRASESVDSYGISFMHWYQQKPGQPPKLLIYRASNLESGIPARFSGSGSRTDFTLTINPVEADDVATYYCQQSNEDPWTFGAGTGLEIKR
notes: as for B1
B3: I23RB54 (antibody, mouse IgG2a, kappa, V domains shown)
VH: EVQLQQSGGGLVKPGGSLKLSCAASGFTFSSYAMSWVRQTPEKRLEWVAGISSGGSYIYYPDNVKGRFTISRDNARNTLYLQMSSLRSEDTAMYYCARKKSDYGAMDYWGQGTTLTVSS
VL: DIQMTQSPKFLLVSAGDRVTITCKASQSVSNDVAWYQQKPGQSPRLLIYYASNRYTGVPDRFTGSGYGTDFTFTISTVQAEDLAVYFCQQDYSSLPTFGAGTKLEMKR
notes: as for B1
B4: I23RB67 (antibody, mouse IgG2a, kappa, V domains shown)
VH: EVQLQQSGAELVKPGASVKLSCKASGYTFTSYWINWVKQRPGQGLEWIGNIYPGSSSTNYNEKFKSKATLTVDTSSSTAYMQLSSLTSDDSAVYYCARSAYGNRLAMDYWGQGTTLTVSS
VL: DVVMTQSHKFMSTSVGDRVSITCKASQDVSTAVAWYQQKPGQSPKLLIYSAFYRYTGVPDRFTGSGSGTDFTFTISSVQAEDLAVYYCQQHYSTPYTFGGGTKLELKR
notes: as for B1
B5: I23RB102 (antibody, mouse IgG2a, kappa, V domains shown)
VH: QVQLQQPGAELVKPGASVKVSCKASGYTFTKYWINWMNQRPGQGLEWIGNIYPGSISTNYNEKFKSKVTLTVDISSSTAYMQLSSLTSDDSAVYYCARGDFYALDYWGQGTTLTVSS
VL: DIQMTQSPASLSVSVGETVTITCRASENIYSHITWYQLKQGKSPQLLVYASTNLADDVPSRFSGSGSGTQYSLKINSLLSEDFGTYYCQHFWGTPWTFGGGTKLEMKR
notes: as for B1
B6: I23RB35 (antibody, mouse IgG2a, kappa, V domains shown)
VH: DVQLQESGPGLVKPSQSLSLTCSVTGYSITSGHNWNWIRQFPGNKLEWLGYISYDGSNNYDPSLKNRISITRDTSKNQFFLKLNSVTTEDTATYYCARGGGYFGNSYRVFASWGQGTTVTVSS
VL: B2 VL with M4L, I34N, G61E, S69R, R72G, E97A, W100Y, A104G, G107K
notes: as for B1
B7: I23RB69 (antibody, mouse IgG2a, kappa, V domains shown)
VH: EVQLQQSGAELVKPGASVKISCKASGYSFTGYNMNWVKQSHGKSLEWIGNINPFYDKTSYNQKFKGKATLTVDKASSTAYMQLNSLTSEDSAVYYCARQLGLKGFAYWGQGTLVTVSA
VL: B4 VL with V2I, F52S, Y96W, L106M
notes: as for B1
B8: I23RB180 (antibody, mouse IgG2a, kappa, V domains shown)
VH: QVTLKESGPGILQPSQTLSLTCSFSGFSLSTYGMGVGWIRQPSGKGLEWLANIWWNDSKYHNAALKSRLTISKDTSKNQVFLKIASVDTADTATYYCGRIDGYYECVDVWGTGTSVTVSS
VL: DIQMTQSPASLSASVGETVTITCRASVNIHNYLAWYQQKQGKSPQLLVYNAKTLADGVPSRFSGSGSGTQYSLKINSLQPEDFGSYYCQHFWTTPYMYTFGAGTKLELKR
notes: as for B1
B9: I23RB91 (antibody, mouse IgG2a, kappa, V domains shown)
VH: EFQLQQFGPELLKPGASVKISCKASGYTFTDYIMHWVKQSHGKSLEWIGGISPNYGGTGYNGKFKDKATLTVDKSSSTAYMELRSLTSEDSAVYYCARFNNYYYFDYWGQGTTLTVSS
VL: DIKMTQSPSSMYASLGERVTITCKASQDINSYLSWCQQKPGKSPKALIYRANSLVDGVPSRFSGSGSGQDYSLTISSLEYEDMGIYYCLQYDEFPYTFGGGTKLEMKR
notes: as for B1
B10: I23RB177 (antibody, mouse IgG2a, kappa, V domains shown)
VH: EVQLQQSGPELLKPGASVKISCKASGYTITDYTMHWVKQSHGKSLEWIGGINPNYGGTSYNEKFKDKATLTVDKSSSTAYMELRSLTSEDSAVFYCVRGNIYFDYWGQGTTLTVSS
VL: B9 VL with D1N, I2T, K3Q, C36F, S53R, L89Q, Y96R, G100A, M106L
notes: as for B1
B11: I23RB260 (antibody, mouse IgG2a, kappa, V domains shown)
VH: QVQLVQSGAEVKKPGSSVKVSCKASGGTFSSYGISWVRQAPGQGLEWMGGIIPIFGTANYAQKFQGRVTITADESTSTAYMELSSLRSEDTAVYYCARDFGWSLWFDYWGQGTLVTVSS
VL: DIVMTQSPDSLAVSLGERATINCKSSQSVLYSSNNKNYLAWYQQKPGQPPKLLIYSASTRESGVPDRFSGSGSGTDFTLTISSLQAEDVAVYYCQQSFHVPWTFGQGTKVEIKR
notes: phage display; human V, mouse IgG2a/kappa
B12: I23RB267 (antibody, mouse IgG2a, kappa, V domains shown)
VH: EVQLVQSGAEVKKPGESLKISCKGSGYSFTSYWIGWVRQMPGKGLEWMGIIYPGDSDTRYSPSFQGQVTISADKSISTAYLQWSSLKASDTAMYYCARVWYSSWDLDYWGQGTLVTVSS
VL: not shown
notes: as for B11
B13: I23RB317 (antibody, mouse IgG2a, kappa, V domains shown)
VH: QVQLVQSGAEVKKPGSSVKVSCKASGGTFSSYAISWVRQAPGQGLEWMGGIIPIFGTANYAQKFQGRVTITADESTSTAYMELSSLRSEDTAVYYCARGNGVNYHSELDYWGQGTLVTVSS
VL: EIVLTQSPATLSLSPGERATLSCRASQSVDSFLAWYQQKPGQAPRLLIYTASNRATGIPARFSGSGSGTDFTLTISSLEPEDFAVYYCQQGNSAPFTFGQGTKVEIKR
notes: as for B11
B14: I23RB321 (antibody, mouse IgG2a, kappa, V domains shown)
VH: QVQLVQSGAEVKKPGSSVKVSCKASGGTFSSYGISWVRQAPGQGLEWMGWISAIFGTTNYAQKFQGRVTITADESTSTAYMELSSLRSEDTAVYYCARHWLQSFDYWGQGTLVTVSS
VL: DIQMTQSPSSLSASVGDRVTITCRASQSIGGDLNWYQQKPGKAPKLLIYAASSLQSGVPSRFSGSGSGTDFTLTISSLQPEDFATYYCQQSYSTPLTFGQGTKVEIKR
notes: as for B11
B15: I23RB264 (antibody, mouse IgG2a, kappa, V domains shown)
VH: B14 VH with G33A, W50G, S52I, A53P, T58A, H99R, W100S, L101S, Q102P, S103G
VL: B14 VL with G30D, G31N, A50N, S91P, T94I
notes: as for B11
B16: I23RB313 (antibody, mouse IgG2a, kappa, V domains shown)
VH: B14 VH with H99G, W100T, L101V, Q102P, S103G
VL: B14 VL with G31E
notes: as for B11
B17: I23RB261 (antibody, mouse IgG2a, kappa, V domains shown)
VH: B14 VH with G33A, A53P, I54Y, T58A, H99M, W100Y, L101R, S103G
VL: B14 VL with G30N, G31D
notes: as for B11
B18: I23RB319 (antibody, mouse IgG2a, kappa, V domains shown)
VH: B14 VH with V93L, H99P, W100L, L101K, S103A
VL: B14 VL with G30T, G31D
notes: as for B11

Substitutions are numbered along the chain they refer to.

Consider 18 molecules from patent US20250179196A1 (Janssen / Centocor, published 2025).

For one test, the target named is T1, human IL-23R expressed on the cell surface of stably transfected iLite and HEK cell lines (human, UniProt Q5VWK5 24-629).
T1 construct: whole, on cells; Same receptor on two transfected cell lines; the cell line is named under assay; also called human IL-23R iLite cells; human IL-23R HEK cells
T1 sequence (looked up): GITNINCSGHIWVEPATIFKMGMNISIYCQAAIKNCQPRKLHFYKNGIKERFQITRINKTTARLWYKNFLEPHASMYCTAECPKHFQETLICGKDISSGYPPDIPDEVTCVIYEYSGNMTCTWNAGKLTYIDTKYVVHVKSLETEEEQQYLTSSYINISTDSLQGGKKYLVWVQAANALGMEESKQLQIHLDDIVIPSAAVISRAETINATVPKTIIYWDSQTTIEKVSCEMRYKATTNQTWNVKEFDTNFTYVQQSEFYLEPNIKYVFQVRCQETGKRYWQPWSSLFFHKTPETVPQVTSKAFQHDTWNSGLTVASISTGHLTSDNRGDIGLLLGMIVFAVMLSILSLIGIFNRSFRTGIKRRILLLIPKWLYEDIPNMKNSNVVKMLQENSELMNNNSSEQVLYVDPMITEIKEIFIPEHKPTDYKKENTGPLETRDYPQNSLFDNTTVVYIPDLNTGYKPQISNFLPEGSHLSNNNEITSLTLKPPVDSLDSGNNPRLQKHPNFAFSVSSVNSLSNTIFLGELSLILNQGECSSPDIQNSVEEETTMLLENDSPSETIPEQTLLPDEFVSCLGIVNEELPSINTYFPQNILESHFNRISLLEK
The experiment in a line: flow cytometry on human IL-23R HEK cells, Expt E (11-point, 384well). The protocol:
HEK-IL-23R cell concentration response mAb binding (11-point, 384-well assay). […] IL-23R mAbs were allowed to bind to cells for 30 minutes, at 37° C. […] Cells were next washed twice in ice-cold stain buffer, then resuspended in a final volume of 10 μL with Sytox Green viability dye (ThermoFisher, Cat #S7020). Plates were kept on ice until run for analysis on the iQue. All washes were performed by centrifugation (800 rcf, 3 minutes) followed by automated aspiration to remove supernatants with plate washers. Cell-binding to HEK-IL-23R cells was measured with FlowJo, by gating for single, viable cells and determining the geometric mean fluorescence intensity (MFI) for the 647 detection antibody. Geometric mean fluorescence intensities were plotted over log mAb concentrations fitted with a dose response curve with variable slope using GraphPad Prism.
As for B1, the EC50 was above 50 nM and the “MFI (6.4 nM)” value was found to be 86100 MFI.

As for B2, the EC50 is 15.8 nM and the “MFI (6.4 nM)” value stood at 84200 MFI.

B3: the EC50 was determined as 35.2 nM and the “MFI (6.4 nM)” value is 63100 MFI.

With B4, the midpoint of the response, the EC50, lay at 18 nM and the “MFI (6.4 nM)” value is 80900 MFI.

Regarding B5, the response was half-maximal at 8.6 nM (EC50) and the “MFI (6.4 nM)” value amounted to 258000 MFI.

In a further test the target is T1, human IL-23R expressed on the cell …. In words: flow cytometry on human IL-23R HEK cells, Expt D (8-point, 96well). As to the method:
HEK-IL-23R cell concentration response mAb binding (8-point, 96-well assay). […] HEK-IL-23R and HEK-parental cells (12.5 μL of each, 120000 cells total) were plated in 2× replicate on 96-well V-bottom plates (Corning, Cat #3357) into 37° C. warmed Assay medium containing serially diluted IL-23R mAbs to a final volume of 150 μL. IL-23R mAbs were allowed to bind to cells for 30 minutes, at 37° C. […] Cells were next washed twice in ice-cold stain buffer, then resuspended in a final volume of 30 μL with Sytox Green viability dye (ThermoFisher, Cat #S7020). Plates were kept on ice until run for analysis on the iQue. All washes were performed by centrifugation (800 rcf, 3 minutes) followed by flick decantation to remove supernatants. Cell-binding to HEK-IL-23R cells was measured with FlowJo, by gating for single, viable cells and determining the geometric mean fluorescence intensity (MFI) for the 647 detection antibody. Geometric mean fluorescence intensities were plotted over log mAb concentrations fitted with a dose response curve with variable slope using GraphPad Prism.
Molecule B6 came in with a concentration for a half-maximal effect (EC50) of 0.2 nM.

In the case of B7, the midpoint of the response, the EC50, lay at 0.6 nM.

As to B8, it took 27.6 nM to reach a half-maximal effect (EC50).

B9: the EC50 is 30.3 nM.

Molecule B10 came in with an EC50 above 50 nM.

Molecule B11 returned an EC50 above 50 nM.

For B12, the EC50 is 9.4 nM.

Turning to B13, a half-maximal response (EC50) required 31 nM.

Turning to B14, it took 18.6 nM to reach a half-maximal effect (EC50).

B15 had an EC50 above 50 nM.

B16 displayed a half-maximal effective concentration (EC50) above 50 nM.

Regarding B17, the EC50 was 9.2 nM.

B18 had a 50% effective concentration (EC50) of 8.7 nM.
